{"source": "patent US20250101108", "key": {"PD-L1": {"target": "PD-L1 (UniProt Q9NZQ7)", "sequence (Q9NZQ7 19-290)": "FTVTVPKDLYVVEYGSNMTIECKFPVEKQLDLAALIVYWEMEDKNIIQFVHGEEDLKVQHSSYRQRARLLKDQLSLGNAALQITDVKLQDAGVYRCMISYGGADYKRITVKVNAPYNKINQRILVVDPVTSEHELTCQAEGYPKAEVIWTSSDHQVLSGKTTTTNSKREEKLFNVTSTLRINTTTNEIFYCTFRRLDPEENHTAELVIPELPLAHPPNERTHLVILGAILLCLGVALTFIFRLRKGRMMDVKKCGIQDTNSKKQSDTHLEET"}, "PD-L2-FLAG": {"target": "PD-L2-FLAG (UniProt Q9BQ51)", "sequence (Q9BQ51 20-273)": "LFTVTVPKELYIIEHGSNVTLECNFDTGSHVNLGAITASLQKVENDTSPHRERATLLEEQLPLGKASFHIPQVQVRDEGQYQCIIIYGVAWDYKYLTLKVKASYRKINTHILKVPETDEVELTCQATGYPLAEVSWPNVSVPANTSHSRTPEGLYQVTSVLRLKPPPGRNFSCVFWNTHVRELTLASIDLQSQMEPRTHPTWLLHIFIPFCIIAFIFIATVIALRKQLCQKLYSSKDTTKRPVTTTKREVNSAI"}, "PD-L1-FLAG": {"target": "PD-L1-FLAG (UniProt Q9NZQ7)", "sequence (Q9NZQ7 19-290)": "as the sequence (Q9NZQ7 19-290) above"}}}
{"substance": "E3 ligase ITCH", "values": [{"measurement": "poly-ubiquitination of endogenous PD-L1 (anti-PD-L1 IP, Western blot of ubiquitin)", "setting": "PD-L1", "value": "knockdown of endogenous ITCH reduced PD-L1 poly-ubiquitination (FIGS. 2F, 2G), while over-expression of ITCH increased PD-L1 poly-ubiquitination (FIG. 2H)"}, {"measurement": "poly-ubiquitination (anti-FLAG IP, Western blot of ubiquitin)", "setting": "PD-L2-FLAG", "value": "co-transfection of ITCH with either PD-L1-FLAG (FIG. 2E) or PD-L2-FLAG (FIG. 9I) led to poly-ubiquitination of PD-L1 or PD-L2, respectively"}, {"measurement": "poly-ubiquitination (anti-FLAG IP, Western blot of ubiquitin)", "setting": "PD-L1-FLAG", "value": "co-transfection of ITCH with either PD-L1-FLAG (FIG. 2E) or PD-L2-FLAG (FIG. 9I) led to poly-ubiquitination of PD-L1 or PD-L2, respectively"}, {"measurement": "ubiquitination sites by mass spectrometry", "setting": "PD-L1-FLAG", "value": "Mass spectrometry analysis identified lysine 46 (K46) and K162 of PD-L1 as major ubiquitination sites caused by ITCH over-expression in 293T cells"}]}
